The record followed here is article PMC13096800.

The term stoichiometry N denotes the number of molecules, sites or subunits per partner or assembly.

For the assay, the target named is apoptosis-inducing factor, mitochondrial (AIFM1) (human) (UniProt O95831). Nature of the assay: cross-linking; sulfo-SDA (0.5 mM) photo-cross-linking of AIFM1 at 1 mg/ml, pre-incubated on ice with 1 mM NADH for 1 h to induce dimerization; 10 mM HEPES-NaOH pH 7.8, 150 mM NaCl, 4 mM MgCl2, 0.5 mM TCEP; UVEN UV activation 0-180 s; SDS-PAGE, and LC-MS/MS of the 32-s sample.

For the substance “apoptosis-inducing factor, mitochondrial (AIFM1) (from UniProt O95831 103-613) (natural protein)”, the stoichiometry N worked out at 2.
